Data published in PMC7304070 (Journal of the American Chemical Society, 2020).
Numbered stars: 1 amine (or outer) side, 2 acyl side, 3 side chain; on linkers, the order of the positions; unused ones are H or OH. Bridge positions count the residues as written; N and C are the ends. Square brackets hold non-standard residues; d marks the D form. Ends that are not written are not given here. Bis(1,2,3triazol4ylCH2)ether = c1c(COCc2cn([*:2])nn2)nnn1[*:1]; Aha = [N-]=[N+]=NCC[C@H](N)C(=O)O

What follows are binders tested against AlexaFluor647 tagged MDM2-GST (UniProt Q00987 1-491, AlexaFluor647 label) (assay: flow cytometry on cells).
AlexaFluor647 tagged MDM2-GST, sequence (Q00987 whole entry): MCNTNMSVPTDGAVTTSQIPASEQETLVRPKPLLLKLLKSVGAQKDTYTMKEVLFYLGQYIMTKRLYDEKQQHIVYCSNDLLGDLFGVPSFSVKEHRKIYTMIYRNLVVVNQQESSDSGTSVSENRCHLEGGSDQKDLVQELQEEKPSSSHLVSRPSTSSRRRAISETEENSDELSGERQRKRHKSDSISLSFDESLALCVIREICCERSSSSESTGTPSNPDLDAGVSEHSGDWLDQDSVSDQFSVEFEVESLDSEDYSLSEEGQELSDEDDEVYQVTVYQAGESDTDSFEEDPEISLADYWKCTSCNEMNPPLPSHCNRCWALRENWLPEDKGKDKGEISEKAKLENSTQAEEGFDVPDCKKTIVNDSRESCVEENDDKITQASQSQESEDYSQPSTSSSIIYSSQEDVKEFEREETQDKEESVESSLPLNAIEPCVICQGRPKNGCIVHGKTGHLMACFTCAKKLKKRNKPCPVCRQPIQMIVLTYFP

Compared with VLSF[Aha]DYWNLL[Aha]GS [SPD-M3-V1, displayed on the bacterial surface, non-stabilized], VLSF[Aha]DYWNLL[Aha]GS (triazole 5-12 via Bis(1,2,3triazol4ylCH2)ether) [SPD-M3-V1, displayed on the bacterial surface, stabilized] is 6.5-fold lower in Kd: 64 ± 33 nM for the first, 9.8 ± 3.4 nM for the second. The second binds more tightly here.

What follows are binders tested against biotinylated MDM2 truncate (residues 10-118) (UniProt Q00987 10-118, biotin (NHS-PEG4-Biotin)) (assay: BLI).
biotinylated MDM2 truncate (residues 10-118), sequence (Q00987 10-118): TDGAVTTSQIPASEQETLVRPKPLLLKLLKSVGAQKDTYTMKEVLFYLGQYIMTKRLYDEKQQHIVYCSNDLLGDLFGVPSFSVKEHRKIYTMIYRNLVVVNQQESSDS

First: GGTF[Aha]GYWADL[Aha]AF-NH2 (triazole 5-12 via Bis(1,2,3triazol4ylCH2)ether) [SPD-M3-G1, synthetic, stabilized]
Second: GGTF[Aha]GYWADL[Aha]AF-NH2 [SPD-M3-G1, synthetic, non-stabilized]
The Kd of the first is 4.1-fold lower: 5.1 nM for the first, 21 nM for the second.

Going from VLSF[Aha]DYWNLL[Aha]GS-NH2 (triazole 5-12 via Bis(1,2,3triazol4ylCH2)ether) [SPD-M3-V1, synthetic, stabilized] to VLSF[Aha]DYWNLL[Aha]GS-NH2 [SPD-M3-V1, synthetic, non-stabilized], the Kd rises from 14 nM to 131 nM (9.4-fold).
